Data taken from publication PMC3265130 (2011).

Target: T1, H3(1-15Y)K9me3 (Homo sapiens, H3K9me3)
T1 chain: ARTKQTARKSTGGKAY
Assay: ITC

B1: Su(Var)205 17-76 (protein)
chain: not shown
Kd: 300 nM
